Patent publication US20210238260A1 (published 2021)

How the values were obtained:
[1] = target: T1, plasma purified human antithrombin III (AT-III), in complex with unfractionated heparin (UFH) (human, UniProt P01008 33-464); test: K0.5: AT-III concentration (with excess UFH) for 50% inhibition of FIXa activity on Mesyl-D-CHG-Gly-Arg-AMC, 10 s incubation
T1 construct: also called AT-III/UFH

[2] = target: T2, Factor VIIIa (recombinant FVIII, Kogenate FS, activated with alpha-thrombin) (UniProt P00451 20-2351); test: same assay; ratio of KD-app of Catalyst Biosciences WT FIXa to KD-app of this FIXa
T2 construct: also called FVIIIa; cofactor
T2 sequence (looked up): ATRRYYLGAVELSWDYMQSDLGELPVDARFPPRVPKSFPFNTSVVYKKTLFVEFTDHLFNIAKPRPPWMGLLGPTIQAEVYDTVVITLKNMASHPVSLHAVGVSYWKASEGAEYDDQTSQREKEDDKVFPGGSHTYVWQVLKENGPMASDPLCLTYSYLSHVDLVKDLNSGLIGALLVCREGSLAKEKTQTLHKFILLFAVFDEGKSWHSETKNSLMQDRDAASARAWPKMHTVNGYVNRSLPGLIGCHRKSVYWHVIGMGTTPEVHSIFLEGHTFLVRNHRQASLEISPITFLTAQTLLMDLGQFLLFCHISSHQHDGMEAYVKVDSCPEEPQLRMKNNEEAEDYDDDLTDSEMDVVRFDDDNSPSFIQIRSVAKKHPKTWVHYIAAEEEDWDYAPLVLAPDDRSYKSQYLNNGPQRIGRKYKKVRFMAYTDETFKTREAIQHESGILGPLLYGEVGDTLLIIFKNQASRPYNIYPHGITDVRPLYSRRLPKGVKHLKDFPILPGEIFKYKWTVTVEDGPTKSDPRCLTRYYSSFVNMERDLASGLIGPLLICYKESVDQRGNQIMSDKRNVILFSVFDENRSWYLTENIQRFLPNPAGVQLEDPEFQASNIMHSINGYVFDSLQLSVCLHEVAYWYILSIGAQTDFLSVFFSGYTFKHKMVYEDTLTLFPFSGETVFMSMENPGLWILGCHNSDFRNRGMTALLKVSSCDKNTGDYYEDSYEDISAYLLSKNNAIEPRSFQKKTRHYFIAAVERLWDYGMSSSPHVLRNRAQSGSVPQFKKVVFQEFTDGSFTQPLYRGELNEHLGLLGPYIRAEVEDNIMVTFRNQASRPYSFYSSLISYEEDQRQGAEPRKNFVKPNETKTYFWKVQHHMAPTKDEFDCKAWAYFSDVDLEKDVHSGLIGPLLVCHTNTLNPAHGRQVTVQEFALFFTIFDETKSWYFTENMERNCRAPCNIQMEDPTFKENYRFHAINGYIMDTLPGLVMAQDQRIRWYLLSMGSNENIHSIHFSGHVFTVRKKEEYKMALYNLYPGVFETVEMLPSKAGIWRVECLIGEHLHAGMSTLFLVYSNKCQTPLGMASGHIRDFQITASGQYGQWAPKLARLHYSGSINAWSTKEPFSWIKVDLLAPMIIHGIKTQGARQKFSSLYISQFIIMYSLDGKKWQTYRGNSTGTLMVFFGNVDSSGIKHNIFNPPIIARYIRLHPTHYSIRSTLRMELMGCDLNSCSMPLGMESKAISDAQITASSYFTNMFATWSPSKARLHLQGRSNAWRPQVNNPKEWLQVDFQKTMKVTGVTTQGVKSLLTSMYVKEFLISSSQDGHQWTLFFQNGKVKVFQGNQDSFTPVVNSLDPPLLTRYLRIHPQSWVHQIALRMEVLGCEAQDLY

[3] = target: T2, Factor VIIIa (recombinant FVIII, …); test: apparent functional KD (KD-app): FXa generation by FIXa with FVIIIa titrated, PC/PS vesicles, saturating FX, fluorogenic Spectrafluor FXa
[4] = target: T3, Factor VIIIa (recombinant FVIII, Kogenate FS, activated with alpha-thrombin) (UniProt P00451 20-2351); test: ratio of KD-app of wild-type FIXa (Catalyst Biosciences WT, SEQ ID NO:3) to that of the variant, same Xase assay
T3 construct: also called FVIIIa
T3 sequence (looked up): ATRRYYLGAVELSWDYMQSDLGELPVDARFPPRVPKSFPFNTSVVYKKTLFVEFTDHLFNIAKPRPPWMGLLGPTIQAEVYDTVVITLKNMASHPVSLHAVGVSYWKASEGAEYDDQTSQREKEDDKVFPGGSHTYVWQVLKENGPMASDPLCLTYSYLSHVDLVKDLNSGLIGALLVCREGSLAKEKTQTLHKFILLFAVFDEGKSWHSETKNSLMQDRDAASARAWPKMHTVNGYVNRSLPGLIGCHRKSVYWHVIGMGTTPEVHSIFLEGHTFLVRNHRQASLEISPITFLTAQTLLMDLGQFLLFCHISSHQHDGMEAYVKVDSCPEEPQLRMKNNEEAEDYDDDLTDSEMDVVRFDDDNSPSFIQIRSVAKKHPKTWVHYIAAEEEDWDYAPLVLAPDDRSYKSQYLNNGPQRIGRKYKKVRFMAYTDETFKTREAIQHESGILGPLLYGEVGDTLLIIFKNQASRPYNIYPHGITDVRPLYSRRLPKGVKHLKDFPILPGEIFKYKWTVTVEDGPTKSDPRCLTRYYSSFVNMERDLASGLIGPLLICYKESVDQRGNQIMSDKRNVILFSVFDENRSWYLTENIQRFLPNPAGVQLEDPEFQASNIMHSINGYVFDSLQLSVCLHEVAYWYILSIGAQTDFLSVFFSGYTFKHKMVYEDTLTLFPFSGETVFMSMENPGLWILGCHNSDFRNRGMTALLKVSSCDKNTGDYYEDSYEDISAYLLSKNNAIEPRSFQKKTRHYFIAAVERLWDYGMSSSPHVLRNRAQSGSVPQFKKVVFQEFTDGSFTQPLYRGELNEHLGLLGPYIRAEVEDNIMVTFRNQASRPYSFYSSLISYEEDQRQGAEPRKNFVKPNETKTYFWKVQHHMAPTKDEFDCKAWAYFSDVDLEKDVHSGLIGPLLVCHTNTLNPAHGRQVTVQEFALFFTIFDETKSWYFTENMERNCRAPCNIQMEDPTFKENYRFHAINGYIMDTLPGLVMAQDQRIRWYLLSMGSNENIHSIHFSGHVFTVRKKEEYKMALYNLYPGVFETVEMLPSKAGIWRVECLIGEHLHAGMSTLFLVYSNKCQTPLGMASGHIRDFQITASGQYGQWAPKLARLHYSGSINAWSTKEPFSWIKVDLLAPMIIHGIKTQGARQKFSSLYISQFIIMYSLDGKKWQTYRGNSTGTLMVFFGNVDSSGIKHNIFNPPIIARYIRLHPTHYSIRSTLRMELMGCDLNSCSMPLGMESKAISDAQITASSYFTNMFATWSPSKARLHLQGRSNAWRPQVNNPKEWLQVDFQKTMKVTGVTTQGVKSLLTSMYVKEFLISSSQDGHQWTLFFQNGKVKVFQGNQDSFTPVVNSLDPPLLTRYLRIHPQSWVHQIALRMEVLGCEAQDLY

[5] = target: T3, Factor VIIIa (recombinant FVIII, …); test: functional cofactor affinity KD-app: fluorogenic FX activation (Xase) assay, FVIIIa titrated, PC/PS vesicles, saturating FX

B1: FIXa-D104N/K106S/K247N/N249S/N260S (enzyme)
chain 1: YNSGKLEEFVQGNLERECMEEKCSFEEAREVFENTERTTEFWKQYVDGDQCESNPCLNGGSCKDDINSYECWCPFGFEGKNCELDVTCNIKNGRCEQFCKNSANNSVVCSCTEGYRLAENQKSCEPAVPFPCGRVSVSQTSKLTR
chain 2: VVGGEDAKPGQFPWQVVLNGKVDAFCGGSIVNEKWIVTAAHCVETGVKITVVAGEHNIEETEHTEQNRSVIRIIPHHNYSAAINKYNHDIALLELDEPLVLNSYVTPICIADKEYTNIFLKFGSGYVSGWGRVFHKGRSALVLQYLRVPLVDRATCLRSTKFTIYNNMFCAGFHEGGRDSCQGDSGGPHVTEVEGTSFLTGIISWGEECAMKGKYGIYTKVSRYVNWIKEKTKLT
[1]
  IC50: 1260 nM

B2: FIXa-D104N/K106S/Y155F/K247N/N249S/N260S (enzyme)
chain 1: YNSGKLEEFVQGNLERECMEEKCSFEEAREVFENTERTTEFWKQYVDGDQCESNPCLNGGSCKDDINSYECWCPFGFEGKNCELDVTCNIKNGRCEQFCKNSANNSVVCSCTEGYRLAENQKSCEPAVPFPCGRVSVSQTSKLTR
chain 2: VVGGEDAKPGQFPWQVVLNGKVDAFCGGSIVNEKWIVTAAHCVETGVKITVVAGEHNIEETEHTEQNRSVIRIIPHHNYSAAINKYNHDIALLELDEPLVLNSYVTPICIADKEYTNIFLKFGSGYVSGWGRVFHKGRSALVLQYLRVPLVDRATCLRSTKFTIYNNMFCAGFHEGGRDSCQGDSGGPHVTEVEGTSFLTGIISWGEECAMKGKYGIYTKVSRYVNWIKEKTKLT
[1]
  IC50: 692 nM

B3: FIXa-R318Y/R338E/R403E (enzyme)
chain 1: YNSGKLEEFVQGNLERECMEEKCSFEEAREVFENTERTTEFWKQYVDGDQCESNPCLNGGSCKDDINSYECWCPFGFEGKNCELDVTCNIKNGRCEQFCKNSADNKVVCSCTEGYRLAENQKSCEPAVPFPCGRVSVSQTSKLTR
chain 2: VVGGEDAKPGQFPWQVVLNGKVDAFCGGSIVNEKWIVTAAHCVETGVKITVVAGEHNIEETEHTEQKRNVIRIIPHHNYNAAINKYNHDIALLELDEPLVLNSYVTPICIADKEYTNIFLKFGSGYVSGWGRVFHKGYSALVLQYLRVPLVDRATCLESTKFTIYNNMFCAGFHEGGRDSCQGDSGGPHVTEVEGTSFLTGIISWGEECAMKGKYGIYTKVSEYVNWIKEKTKLT
notes: also called R150Y/R170E/R233E
[2]
  KD-WT/KD-mut: 0.3
[3]
  Kd: 340 nM

B4: FIXa-R318Y/R338E/R403E/E410N (enzyme)
chain 1: YNSGKLEEFVQGNLERECMEEKCSFEEAREVFENTERTTEFWKQYVDGDQCESNPCLNGGSCKDDINSYECWCPFGFEGKNCELDVTCNIKNGRCEQFCKNSADNKVVCSCTEGYRLAENQKSCEPAVPFPCGRVSVSQTSKLTR
chain 2: VVGGEDAKPGQFPWQVVLNGKVDAFCGGSIVNEKWIVTAAHCVETGVKITVVAGEHNIEETEHTEQKRNVIRIIPHHNYNAAINKYNHDIALLELDEPLVLNSYVTPICIADKEYTNIFLKFGSGYVSGWGRVFHKGYSALVLQYLRVPLVDRATCLESTKFTIYNNMFCAGFHEGGRDSCQGDSGGPHVTEVEGTSFLTGIISWGEECAMKGKYGIYTKVSEYVNWIKNKTKLT
notes: also called R150Y/R170E/R233E/E240N
[2]
  KD-WT/KD-mut: 2
[3]
  Kd: 47 nM

B5: FIXa-Y155F/R318Y/T343R/E410N (enzyme)
chain 1: YNSGKLEEFVQGNLERECMEEKCSFEEAREVFENTERTTEFWKQYVDGDQCESNPCLNGGSCKDDINSYECWCPFGFEGKNCELDVTCNIKNGRCEQFCKNSADNKVVCSCTEGYRLAENQKSCEPAVPFPCGRVSVSQTSKLTR
chain 2: VVGGEDAKPGQFPWQVVLNGKVDAFCGGSIVNEKWIVTAAHCVETGVKITVVAGEHNIEETEHTEQKRNVIRIIPHHNYNAAINKYNHDIALLELDEPLVLNSYVTPICIADKEYTNIFLKFGSGYVSGWGRVFHKGYSALVLQYLRVPLVDRATCLRSTKFRIYNNMFCAGFHEGGRDSCQGDSGGPHVTEVEGTSFLTGIISWGEECAMKGKYGIYTKVSRYVNWIKNKTKLT
[4]
  KD-WT/KD-mut: 2.5
[5]
  Kd: 38 nM
